Reference: patent US20200181263A1 (NUMAB THERAPEUTICS, published 2020)

T1: cyno CD3 (cyno, UniProt Q95LI5 22-117)
T1 sequence (looked up): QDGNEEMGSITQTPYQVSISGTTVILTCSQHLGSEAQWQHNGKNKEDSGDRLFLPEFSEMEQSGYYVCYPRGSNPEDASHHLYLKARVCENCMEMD

T2: human IL-23 receptor ECD (human, UniProt Q5VWK5 24-355)
T2 construct: extracellular domain
T2 sequence (looked up): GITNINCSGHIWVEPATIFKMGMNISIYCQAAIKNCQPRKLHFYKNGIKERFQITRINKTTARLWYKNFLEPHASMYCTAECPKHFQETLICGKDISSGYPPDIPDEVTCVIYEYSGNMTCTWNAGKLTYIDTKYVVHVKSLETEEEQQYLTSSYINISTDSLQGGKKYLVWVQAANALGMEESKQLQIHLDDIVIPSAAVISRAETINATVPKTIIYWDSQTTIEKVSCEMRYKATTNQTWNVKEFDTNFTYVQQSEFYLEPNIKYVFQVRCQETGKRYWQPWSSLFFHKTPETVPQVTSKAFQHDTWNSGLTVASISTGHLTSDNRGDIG

B1: PRO737 (other)
chain 1: DIQMTQSPSSLSASVGDRVTITCQASENIYSFLAWYQQKPGKAPKLLIYSASKLAAGVPSRFSGSGSGTDFTLTISSLQPEDFATYYCQQTNRYSNPDIYNVFGTGTKVTVLGGGGGSGGGGSGGGGSGGGGSEVQLVESGGGLVQPGGSLRLSCAASGIDFNSNYYMCWVRQAPGKGLEWIGCIYVGSHVNTYYANWAKGRFTISRDNSKNTVYLQMNSLRAEDTAVYYCATSGSSVLYFKFWGQGTLVTVSSGGGGSGGGGSDIQMTQSPSSLSASVGDRVTITCQSSESVYNNKRLSWYQQKPGKAPKLLIYTASSLASGVPSRFSGSGSGTDFTLTISSLQPEDFATYYCQGEFTCSNADCFTFGCGTKVTVLGGGGGSGGGGSGGGGSDIQMTQSPSSLSASVGDRVTITCQSSESVYSNNQLSWYQQKPGQPPKLLIYDASDLASGVPSRFSGSGSGTDFTLTISSLQPEDFATYYCAGGFSSSSDTAFGGGTKLTVLG
chain 2: DIQMTQSPSSLSASVGDRVTITCQASENIYSFLAWYQQKPGKAPKLLIYSASKLAAGVPSRFSGSGSGTDFTLTISSLQPEDFATYYCQQTNRYSNPDIYNVFGTGTKVTVLGGGGGSGGGGSGGGGSGGGGSEVQLVESGGGLVQPGGSLRLSCAASGIDFNSNYYMCWVRQAPGKGLEWIGCIYVGSHVNTYYANWAKGRFTISRDNSKNTVYLQMNSLRAEDTAVYYCATSGSSVLYFKFWGQGTLVTVSSGGGGSGGGGSEVQLVESGGGLVQPGGSLRLSCAASGFPLSSYAMIWVRQAPGKCLEWIGMILRAGNIYYASWVKGRFTISRDNSKNTVYLQMNSLRAEDTAVYYCARRHYNREGYPIGIGDLWGQGTLVTVSSGGGGSGGGGSGGGGSEVQLVESGGGLVQPGGSLRLSCAASGFSLSSNAMGWVRQAPGKGLEYIGIISVGGFTYYASWAKGRFTISRDNSKNTVYLQMNSLRAEDTATYFCARDRHGGDSSGAFYLWGQGTLVTVSS
notes: Hetero-dimeric MATCH, parallel; diS in anti-CD3 domain, 15 aa GS-linker, alternative anti-CD3
B2: PRO736 (other)
chain 1: DIQMTQSPSSLSASVGDRVTITCQASENIYSFLAWYQQKPGKAPKLLIYSASKLAAGVPSRFSGSGSGTDFTLTISSLQPEDFATYYCQQTNRYSNPDIYNVFGTGTKVTVLGGGGGSGGGGSGGGGSGGGGSEVQLVESGGGLVQPGGSLRLSCAASGIDFNSNYYMCWVRQAPGKGLEWIGCIYVGSHVNTYYANWAKGRFTISRDNSKNTVYLQMNSLRAEDTAVYYCATSGSSVLYFKFWGQGTLVTVSSGGGGSGGGGSDIQMTQSPSSLSASVGDRVTITCQSSQSVFSNNYLAWFQQKPGQSPKRLIYSASTLASGVPSRFSGSGSGTDFTLTISSLQPEDFATYYCLGSYACSSADCYVFGCGTKVTVLGGGGGSGGGGSGGGGSDIQMTQSPSSLSASVGDRVTITCQSSESVYSNNQLSWYQQKPGQPPKLLIYDASDLASGVPSRFSGSGSGTDFTLTISSLQPEDFATYYCAGGFSSSSDTAFGGGTKLTVLG
chain 2: DIQMTQSPSSLSASVGDRVTITCQASENIYSFLAWYQQKPGKAPKLLIYSASKLAAGVPSRFSGSGSGTDFTLTISSLQPEDFATYYCQQTNRYSNPDIYNVFGTGTKVTVLGGGGGSGGGGSGGGGSGGGGSEVQLVESGGGLVQPGGSLRLSCAASGIDFNSNYYMCWVRQAPGKGLEWIGCIYVGSHVNTYYANWAKGRFTISRDNSKNTVYLQMNSLRAEDTAVYYCATSGSSVLYFKFWGQGTLVTVSSGGGGSGGGGSEVQLVESGGGLVQPGGSLRLSCAASGFSLSSYDMSWVRQAPGKCLAWIGASYASGPTYYASWAKGRFTISRDNSKNTVYLQMNSLRAEDTATYFCARGGWTGTSHSNIWGQGTLVTVSSGGGGSGGGGSGGGGSEVQLVESGGGLVQPGGSLRLSCAASGFSLSSNAMGWVRQAPGKGLEYIGIISVGGFTYYASWAKGRFTISRDNSKNTVYLQMNSLRAEDTATYFCARDRHGGDSSGAFYLWGQGTLVTVSS
notes: Hetero-dimeric MATCH, parallel; diS in anti-CD3 domain, 15 aa GS-linker
B3: PRO733 (other)
chain 1: DIQMTQSPSSLSASVGDRVTITCQASENIYSFLAWYQQKPGKAPKLLIYSASKLAAGVPSRFSGSGSGTDFTLTISSLQPEDFATYYCQQTNRYSNPDIYNVFGTGTKVTVLGGGGGSGGGGSGGGGSGGGGSEVQLVESGGGLVQPGGSLRLSCAASGIDFNSNYYMCWVRQAPGKGLEWIGCIYVGSHVNTYYANWAKGRFTISRDNSKNTVYLQMNSLRAEDTAVYYCATSGSSVLYFKFWGQGTLVTVSSGGGGSGGGGSDIQMTQSPSSLSASVGDRVTITCQSSESVYNNKRLSWYQQKPGKAPKLLIYTASSLASGVPSRFSGSGSGTDFTLTISSLQPEDFATYYCQGEFTCSNADCFTFGCGTKVTVLGSGGGGSGGGGSDIQMTQSPSSLSASVGDRVTITCQSSESVYSNNQLSWYQQKPGQPPKLLIYDASDLASGVPSRFSGSGSGTDFTLTISSLQPEDFATYYCAGGFSSSSDTAFGGGTKLTVLG
chain 2: DIQMTQSPSSLSASVGDRVTITCQASENIYSFLAWYQQKPGKAPKLLIYSASKLAAGVPSRFSGSGSGTDFTLTISSLQPEDFATYYCQQTNRYSNPDIYNVFGTGTKVTVLGGGGGSGGGGSGGGGSGGGGSEVQLVESGGGLVQPGGSLRLSCAASGIDFNSNYYMCWVRQAPGKGLEWIGCIYVGSHVNTYYANWAKGRFTISRDNSKNTVYLQMNSLRAEDTAVYYCATSGSSVLYFKFWGQGTLVTVSSGGGGSGGGGSEVQLVESGGGLVQPGGSLRLSCAASGFPLSSYAMIWVRQAPGKCLEWIGMILRAGNIYYASWVKGRFTISRDNSKNTVYLQMNSLRAEDTAVYYCARRHYNREGYPIGIGDLWGQGTLVTVSSSGGGGSGGGGSEVQLVESGGGLVQPGGSLRLSCAASGFSLSSNAMGWVRQAPGKGLEYIGIISVGGFTYYASWAKGRFTISRDNSKNTVYLQMNSLRAEDTATYFCARDRHGGDSSGAFYLWGQGTLVTVSS
notes: Hetero-dimeric MATCH, parallel; diS in anti-CD3 domain, 11 aa GS-linker, alternative anti-CD3
B4: PRO741 (other)
chain 1: DIQMTQSPSSLSASVGDRVTITCQASENIYSFLAWYQQKPGKAPKLLIYSASKLAAGVPSRFSGSGSGTDFTLTISSLQPEDFATYYCQQTNRYSNPDIYNVFGTGTKVTVLGGGGGSGGGGSGGGGSGGGGSEVQLVESGGGLVQPGGSLRLSCAASGIDFNSNYYMCWVRQAPGKGLEWIGCIYVGSHVNTYYANWAKGRFTISRDNSKNTVYLQMNSLRAEDTAVYYCATSGSSVLYFKFWGQGTLVTVSSGGGGSGGGGSDIQMTQSPSSLSASVGDRVTITCQSSQSVFSNNYLAWFQQKPGQSPKRLIYSASTLASGVPSRFSGSGSGTDFTLTISSLQPEDFATYYCLGSYACSSADCYVFGCGTKVTVLGSGGGGSGGGGSDVVMTQSPSSLSASVGDRVTITCQASQIISSRSAWYQQKPGQPPKLLIYQASKLASGVPSRFSGSGSGTDFTLTISSLQPEDFATYYCQCTYIDSNFGAFGGGTKLTVLG
chain 2: DIQMTQSPSSLSASVGDRVTITCQASENIYSFLAWYQQKPGKAPKLLIYSASKLAAGVPSRFSGSGSGTDFTLTISSLQPEDFATYYCQQTNRYSNPDIYNVFGTGTKVTVLGGGGGSGGGGSGGGGSGGGGSEVQLVESGGGLVQPGGSLRLSCAASGIDFNSNYYMCWVRQAPGKGLEWIGCIYVGSHVNTYYANWAKGRFTISRDNSKNTVYLQMNSLRAEDTAVYYCATSGSSVLYFKFWGQGTLVTVSSGGGGSGGGGSEVQLVESGGGLVQPGGSLRLSCAASGFSFSSSYWICWVRQAPGKGLEWVGCVFTGDGTTYYASWAKGRFTISRDNSKNTVYLQMNSLRAEDTATYFCARPVSVYYYGMDLWGQGTLVTVSSSGGGGSGGGGSEVQLVESGGGLVQPGGSLRLSCAASGFSLSSYDMSWVRQAPGKCLAWIGASYASGPTYYASWAKGRFTISRDNSKNTVYLQMNSLRAEDTATYFCARGGWTGTSHSNIWGQGTLVTVSS
notes: Hetero-dimeric MATCH, anti-parallel; diS in anti-CD3 domain, 11 aa GS-linker, alternative anti-HSA
B5: PRO747 (other)
chain 1: DIQMTQSPSSLSASVGDRVTITCQASENIYSFLAWYQQKPGKAPKLLIYSASKLAAGVPSRFSGSGSGTDFTLTISSLQPEDFATYYCQQTNRYSNPDIYNVFGTGTKVTVLGGGGGSGGGGSGGGGSGGGGSEVQLVESGGGLVQPGGSLRLSCAASGIDFNSNYYMCWVRQAPGKGLEWIGCIYVGSHVNTYYANWAKGRFTISRDNSKNTVYLQMNSLRAEDTAVYYCATSGSSVLYFKFWGQGTLVTVSSGGGGSGGGGSDIQMTQSPSSLSASVGDRVTITCQSSQSVFSNNYLAWFQQKPGQSPKRLIYSASTLASGVPSRFSGSGSGTDFTLTISSLQPEDFATYYCLGSYACSSADCYVFGCGTKVTVLGAEAAAKEAAAKADIQMTQSPSSLSASVGDRVTITCQSSESVYSNNQLSWYQQKPGQPPKLLIYDASDLASGVPSRFSGSGSGTDFTLTISSLQPEDFATYYCAGGFSSSSDTAFGGGTKLTVLG
chain 2: DIQMTQSPSSLSASVGDRVTITCQASENIYSFLAWYQQKPGKAPKLLIYSASKLAAGVPSRFSGSGSGTDFTLTISSLQPEDFATYYCQQTNRYSNPDIYNVFGTGTKVTVLGGGGGSGGGGSGGGGSGGGGSEVQLVESGGGLVQPGGSLRLSCAASGIDFNSNYYMCWVRQAPGKGLEWIGCIYVGSHVNTYYANWAKGRFTISRDNSKNTVYLQMNSLRAEDTAVYYCATSGSSVLYFKFWGQGTLVTVSSGGGGSGGGGSEVQLVESGGGLVQPGGSLRLSCAASGFSLSSNAMGWVRQAPGKGLEYIGIISVGGFTYYASWAKGRFTISRDNSKNTVYLQMNSLRAEDTATYFCARDRHGGDSSGAFYLWGQGTLVTVSSAEAAAKEAAAKAEVQLVESGGGLVQPGGSLRLSCAASGFSLSSYDMSWVRQAPGKCLAWIGASYASGPTYYASWAKGRFTISRDNSKNTVYLQMNSLRAEDTATYFCARGGWTGTSHSNIWGQGTLVTVSS
notes: Hetero-dimeric MATCH, anti-parallel; diS in anti-CD3 domain, helical linker

biological target: T3, human CD3 gamma-epsilon single-chain (human, UniProt P09693 23-103; P07766 23-118); test: SPR, target immobilised by amine coupling, binder as analyte
T3 construct: Recombinant protein immobilised on the SPR chip

Row | Kd [pM] | Binder
1 | 24000 | B1
2 | 11100 | B2
3 | 26500 | B3
4 | 7580 | B4
5 | 8300 | B5

biological target: T1, cyno CD3; test: as above

Row | Kd [pM] | Binder
6 | 56700 | B1
7 | 8370 | B2
8 | 47700 | B3
9 | 1080 | B4
10 | 6640 | B5

biological target: T4, human serum albumin (human, UniProt P02768 25-609); test: as above
T4 construct: also called HSA

Row | Kd [pM] | Binder
11 | 493 | B1
12 | 635 | B2
13 | 495 | B3
14 | 338 | B4
15 | 325 | B5

biological target: T2, human IL-23 receptor ECD; test: as above

Row | Kd [pM] | Binder
16 | 33.4 | B1
17 | 48.2 | B2
18 | 36.6 | B3
19 | 37.8 | B4
20 | 38.3 | B5

biological target: human IL23R IL12Rbeta 1 heterodimer on CHO-K1 cells (human, UniProt Q5VWK5 24-629; P42701 24-662); test: cell-based or functional assay

Row | NFAT assay EC50 (T-cell activation, 5 h) [pM] | Binder
21 | 152 | B3
22 | 1450 | B5
